{"source": "paper PMC11574045", "about": "“A cofactor-induced repressive type of transcription factor condensation can be induced by synthetic peptides to suppress tumorigenesis” (The EMBO Journal, 2024)", "molecules": {"B1": {"name": "IKZF1 (protein, UniProt Q13422 1-519, looked up)", "DNA-binding protein Ikaros": "MDADEGQDMSQVSGKESPPVSDTPDEGDEPMPIPEDLSTTSGGQQSSKSDRVVASNVKVETQSDEENGRACEMNGEECAEDLRMLDASGEKMNGSHRDQGSSALSGVGGIRLPNGKLKCDICGIICIGPNVLMVHKRSHTGERPFQCNQCGASFTQKGNLLRHIKLHSGEKPFKCHLCNYACRRRDALTGHLRTHSVGKPHKCGYCGRSYKQRSSLEEHKERCHNYLESMGLPGTLYPVIKEETNHSEMAEDLCKIGSERSLVLDRLASNVAKRKSSMPQKFLGDKGLSDTPYDSSASYEKENEMMKSHVMDQAINNAINYLGAESLRPLVQTPPGGSEVVPVISPMYQLHKPLAEGTPRSNHSAQDSAVENLLLLSKAKLVPSEREASPSNSCQDSTDTESNNEEQRSGLIYLTNHIAPHARNGLSLKEEHRAYDLLRAASENSQDALRVVSTSGEQMKVYKCEHCRVLFLDHVMYTIHMGCHGFRDPFECNMCGYHSQDRYEFSSHITRGEHRFHMS"}, "B2": {"name": "IRF2 (protein, UniProt P14316 1-349, looked up)", "Interferon regulatory factor 2": "MPVERMRMRPWLEEQINSNTIPGLKWLNKEKKIFQIPWMHAARHGWDVEKDAPLFRNWAIHTGKHQPGVDKPDPKTWKANFRCAMNSLPDIEEVKDKSIKKGNNAFRVYRMLPLSERPSKKGKKPKTEKEDKVKHIKQEPVESSLGLSNGVSDLSPEYAVLTSTIKNEVDSTVNIIVVGQSHLDSNIENQEIVTNPPDICQVVEVTTESDEQPVSMSELYPLQISPVSSYAESETTDSVPSDEESAEGRPHWRKRNIEGKQYLSNMGTRGSYLLPGMASFVTSNKPDLQVTIKEESNPVPYNSSWPPFQDLPLSSSMTPASSSSRPDRETRASVIKKTSDITQARVKSC"}, "B3": {"name": "HSFY1 (protein, UniProt Q96LI6 1-401, looked up)", "Heat shock transcription …": "MAHVSSETQDVSPKDELTASEASTRSPLCEHTFPGDSDLRSMIEEHAFQVLSQGSLLESPSYTVCVSEPDKDDDFLSLNFPRKLWKIVESDQFKSISWDENGTCIVINEELFKKEILETKAPYRIFQTDAIKSFVRQLNLYGFSKIQQNFQRSAFLATFLSEEKESSVLSKLKFYYNPNFKRGYPQLLVRVKRRIGVKNASPISTLFNEDFNKKHFRAGANMENHNSALAAEASEESLFSASKNLNMPLTRESSVRQIIANSSVPIRSGFPPPSPSTSVGPSEQIATDQHAILNQLTTIHMHSHSTYMQARGHIVNFITTTTSQYHIISPLQNGYFGLTVEPSAVPTRYPLVSVNEAPYRNMLPAGNPWLQMPTIADRSAAPHSRLALQPSPLDKYHPNYN"}, "B4": {"name": "IDB3 (protein, UniProt Q02535 1-119, looked up)", "DNA-binding protein inhibitor …": "MKALSPVRGCYEAVCCLSERSLAIARGRGKGPAAEEPLSLLDDMNHCYSRLRELVPGVPRGTQLSQVEILQRVIDYILDLQVVLAEPAPGPPDGPHLPIQTAELTPELVISNDKRSFCH"}, "B5": {"name": "ARL2BP (protein, UniProt Q9Y2Y0 1-163, looked up)", "ADP-ribosylation factor-like …": "MDALEGESFALSFSSASDAEFDAVVGYLEDIIMDDEFQLLQRNFMDKYYLEFEDTEENKLIYTPIFNEYISLVEKYIEEQLLQRIPEFNMAAFTTTLQHHKDEVAGDIFDMLLTFTDFLAFKEMFLDYRAEKEGRGLDLSSGLVVTSLCKSSSLPASQNNLRH"}, "B6": {"name": "IRF3 (protein, UniProt Q14653 1-427, looked up)", "Interferon regulatory factor 3": "MGTPKPRILPWLVSQLDLGQLEGVAWVNKSRTRFRIPWKHGLRQDAQQEDFGIFQAWAEATGAYVPGRDKPDLPTWKRNFRSALNRKEGLRLAEDRSKDPHDPHKIYEFVNSGVGDFSQPDTSPDTNGGGSTSDTQEDILDELLGNMVLAPLPDPGPPSLAVAPEPCPQPLRSPSLDNPTPFPNLGPSENPLKRLLVPGEEWEFEVTAFYRGRQVFQQTISCPEGLRLVGSEVGDRTLPGWPVTLPDPGMSLTDRGVMSYVRHVLSCLGGGLALWRAGQWLWAQRLGHCHTYWAVSEELLPNSGHGPDGEVPKDKEGGVFDLGPFIVDLITFTEGSGRSPRYALWFCVGESWPQDQPWTKRLVMVKVVPTCLRALVEMARVGGASSLENTVDLHISNSHPLSLTSDQYKAYLQDLVEGMDFQGPGES"}, "B7": {"name": "HSF1 (protein, UniProt Q00613 1-529, looked up)", "Heat shock factor protein 1": "MDLPVGPGAAGPSNVPAFLTKLWTLVSDPDTDALICWSPSGNSFHVFDQGQFAKEVLPKYFKHNNMASFVRQLNMYGFRKVVHIEQGGLVKPERDDTEFQHPCFLRGQEQLLENIKRKVTSVSTLKSEDIKIRQDSVTKLLTDVQLMKGKQECMDSKLLAMKHENEALWREVASLRQKHAQQQKVVNKLIQFLISLVQSNRILGVKRKIPLMLNDSGSAHSMPKYSRQFSLEHVHGSGPYSAPSPAYSSSSLYAPDAVASSGPIISDITELAPASPMASPGGSIDERPLSSSPLVRVKEEPPSPPQSPRVEEASPGRPSSVDTLLSPTALIDSILRESEPAPASVTALTDARGHTDTEGRPPSPPPTSTPEKCLSVACLDKNELSDHLDAMDSNLDNLQTMLSSHGFSVDTSALLDLFSPSVTVPDMSLPDLDSSLASIQELLSPQEPPRPPEAENSSPDSGKQLVHYTAQPLFLLDPGSVDTGSNDLPVLFELGEGSYFSEGDGFAEDPTISLLTGSEPPKAKDPTVS"}, "B8": {"name": "HSFX1 (protein, UniProt Q9UBD0 1-423, looked up)", "Heat shock transcription …": "MEDKRSLSMARCEERNSRGQDHGLERVPFPPQLQSETYLHPADPSPAWDDPGSTGSPNLRLLTEEIAFQPLAEEASFRRPHPDGDVPPQGEDNLLSLPFPQKLWRLVSSNQFSSIWWDDSGACRVINQKLFEKEILKRDVAHKVFATTSIKSFFRQLNLYGFRKRRQCTFRTFTRIFSAKRLVSILNKLEFYCHPYFQRDSPHLLVRMKRRVGVKSAPRHQEEDKPEAAGSCLAPADTEQQDHTSPNENDQVTPQHREPAGPNTQIRSGSAPPATPVMVPDSAVASDNSPVTQPAGEWSEGSQAHVTPVAAVPGPAALPFLYVPGSPTQMNSYGPVVALPTASRSTLAMDTTGLPAPGMLPFCHLWVPVTLVAAGAAQPAASMVMFPHLPALHHHCPHSHRTSQYMPASDGPQAYPDYADQST"}, "B9": {"name": "ID4 (protein, UniProt P47928 1-161, looked up)", "DNA-binding protein inhibitor …": "MKAVSPVRPSGRKAPSGCGGGELALRCLAEHGHSLGGSAAAAAAAAAARCKAAEAAADEPALCLQCDMNDCYSRLRRLVPTIPPNKKVSKVEILQHVIDYILDLQLALETHPALLRQPPPPAPPHHPAGTCPAAPPRTPLTALNTDPAGAVNKQGDSILCR"}, "B10": {"name": "IRF1 (protein, UniProt P10914 1-325, looked up)", "Interferon regulatory factor 1": "MPITRMRMRPWLEMQINSNQIPGLIWINKEEMIFQIPWKHAAKHGWDINKDACLFRSWAIHTGRYKAGEKEPDPKTWKANFRCAMNSLPDIEEVKDQSRNKGSSAVRVYRMLPPLTKNQRKERKSKSSRDAKSKAKRKSCGDSSPDTFSDGLSSSTLPDDHSSYTVPGYMQDLEVEQALTPALSPCAVSSTLPDWHIPVEVVPDSTSDLYNFQVSPMPSTSEATTDEDEEGKLPEDIMKLLEQSEWQPTNVDGKGYLLNEPGVQPTSVYGDFSCKEEPEIDSPGGDIGLSLQRVFTDLKNMDATWLDSLLTPVRLPSIQAIPCAP"}, "B11": {"name": "ING1L (protein, UniProt Q9H160 1-280, looked up)", "Inhibitor of growth protein 2": "MLGQQQQQLYSSAALLTGERSRLLTCYVQDYLECVESLPHDMQRNVSVLRELDNKYQETLKEIDDVYEKYKKEDDLNQKKRLQQLLQRALINSQELGDEKIQIVTQMLELVENRARQMELHSQCFQDPAESERASDKAKMDSSQPERSSRRPRRQRTSESRDLCHMANGIEDCDDQPPKEKKSKSAKKKKRSKAKQEREASPVEFAIDPNEPTYCLCNQVSYGEMIGCDNEQCPIEWFHFSCVSLTYKPKGKWYCPKCRGDNEKTMDKSTEKTKKDRRSR"}, "B12": {"name": "IFI16 (protein, UniProt Q16666 1-785, looked up)", "Gamma-interferon-inducible …": "MGKKYKNIVLLKGLEVINDYHFRMVKSLLSNDLKLNLKMREEYDKIQIADLMEEKFRGDAGLGKLIKIFEDIPTLEDLAETLKKEKLKVKGPALSRKRKKEVDATSPAPSTSSTVKTEGAEATPGAQKRKKSTKEKAGPKGSKVSEEQTQPPSPAGAGMSTAMGRSPSPKTSLSAPPNSSSTENPKTVAKCQVTPRRNVLQKRPVIVKVLSTTKPFEYETPEMEKKIMFHATVATQTQFFHVKVLNTSLKEKFNGKKIIIISDYLEYDSLLEVNEESTVSEAGPNQTFEVPNKIINRAKETLKIDILHKQASGNIVYGVFMLHKKTVNQKTTIYEIQDDRGKMDVVGTGQCHNIPCEEGDKLQLFCFRLRKKNQMSKLISEMHSFIQIKKKTNPRNNDPKSMKLPQEQRQLPYPSEASTTFPESHLRTPQMPPTTPSSSFFTKKSEDTISKMNDFMRMQILKEGSHFPGPFMTSIGPAESHPHTPQMPPSTPSSSFLTTKSEDTISKMNDFMRMQILKEGSHFPGPFMTSIGPAESHPHTPQMPPSTPSSSFLTTLKPRLKTEPEEVSIEDSAQSDLKEVMVLNATESFVYEPKEQKKMFHATVATENEVFRVKVFNIDLKEKFTPKKIIAIANYVCRNGFLEVYPFTLVADVNADRNMEIPKGLIRSASVTPKINQLCSQTKGSFVNGVFEVHKKNVRGEFTYYEIQDNTGKMEVVVHGRLTTINCEEGDKLKLTCFELAPKSGNTGELRSVIHSHIKVIKTRKNKKDILNPDSSMETSPDFFF"}, "B13": {"name": "IKZF2 (protein, UniProt Q9UKS7 1-526, looked up)", "Zinc finger protein Helios": "METEAIDGYITCDNELSPEREHSNMAIDLTSSTPNGQHASPSHMTSTNSVKLEMQSDEECDRKPLSREDEIRGHDEGSSLEEPLIESSEVADNRKVQELQGEGGIRLPNGKLKCDVCGMVCIGPNVLMVHKRSHTGERPFHCNQCGASFTQKGNLLRHIKLHSGEKPFKCPFCSYACRRRDALTGHLRTHSVGKPHKCNYCGRSYKQRSSLEEHKERCHNYLQNVSMEAAGQVMSHHVPPMEDCKEQEPIMDNNISLVPFERPAVIEKLTGNMGKRKSSTPQKFVGEKLMRFSYPDIHFDMNLTYEKEAELMQSHMMDQAINNAITYLGAEALHPLMQHPPSTIAEVAPVISSAYSQVYHPNRIERPISRETADSHENNMDGPISLIRPKSRPQEREASPSNSCLDSTDSESSHDDHQSYQGHPALNPKRKQSPAYMKEDVKALDTTKAPKGSLKDIYKVFNGEGEQIRAFKCEHCRVLFLDHVMYTIHMGCHGYRDPLECNICGYRSQDRYEFSSHIVRGEHTFH"}}, "data": [{"test_system": "HEK293FT cells transfected with TF library", "experiment": "Screening of TF condensates based on fluorescent puncta", "type": "cell-based", "conditions": "Figure 1B numerical data; TF library screen, one value per transcriptional factor", "in_short": "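HEK293FT, PEI transfection of TF library, 60 h; ±glucose 12 h; 4% PFA fix, 0.05% Triton X-100 permeabilization, 5% BSA block; anti-Flag/anti-GAL4 overnight at 4 °C, Alexa 488 secondary 1 h; high-content imaging, 50 fields/well.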", "values": [{"molecule": "B1", "Z score of condensed fraction": 0.01528}, {"molecule": "B2", "Z score of condensed fraction": -0.3538}, {"molecule": "B3", "Z score of condensed fraction": 0.153}, {"molecule": "B4", "Z score of condensed fraction": -0.588}, {"molecule": "B5", "Z score of condensed fraction": 1.651}, {"molecule": "B6", "Z score of condensed fraction": 1.843}, {"molecule": "B7", "Z score of condensed fraction": -1.041}, {"molecule": "B8", "Z score of condensed fraction": -0.6149}, {"molecule": "B9", "Z score of condensed fraction": -0.9102}, {"molecule": "B10", "Z score of condensed fraction": -0.5727}, {"molecule": "B11", "Z score of condensed fraction": -0.141}, {"molecule": "B12", "Z score of condensed fraction": -0.2342}, {"molecule": "B13", "Z score of condensed fraction": 1.456}]}]}
